# Results reported in article PMC10261013, “Characterization of p38α autophosphorylation inhibitors that target the non-canonical activation pathway” (Nature Communications, 2023).
# Ends that are not written are not given here. * marks the point of attachment. FITC = O=C1OC2(c3ccc(O)cc3Oc3cc(O)ccc32)c2ccc(NC(=S)*)cc21
# B1: FITC-TAB1(386-414) peptide (peptide)
# peptide: {FITC}-RVYPVSVPYSSAQSTSKTSVTLSLVMPSQ
# notes: source: synthetic peptide, bought: ChinaPeptides
# B2: TAB1(386-414) peptide (peptide)
# peptide: RVYPVSVPYSSAQSTSKTSVTLSLVMPSQ
# notes: also called TAB1 peptide; source: synthetic peptide, bought: GenScript
# Tests used:
# [1] = target: T1, GST-p38α (human p38α with an N-terminal GST-tag, non-phosphorylated) (human, UniProt Q16539 1-360); assay: fluorescence polarisation; direct binding: FITC-TAB1(386-414) 10 nM with non-phosphorylated GST-p38α 0.17–22 μM, 1 h at RT; 20 mM Tris pH 7.5, 100 mM NaCl, 1 mM DTT, 10 mM MgCl2; settings: both partners purified
# T1 construct: p38α (MAPK14), human; non-phosphorylated; The results text says 'p38α'; the methods and the legend say GST-p38α; also called MAPK14; non-phosphorylated p38α; source: E. coli BL21 DE3 or BL21-DE3-pLysS, purified (Glutathione-Sepharose, dialysis); not shown: GST, N-terminal, kept
# T1 sequence (Q16539 whole entry): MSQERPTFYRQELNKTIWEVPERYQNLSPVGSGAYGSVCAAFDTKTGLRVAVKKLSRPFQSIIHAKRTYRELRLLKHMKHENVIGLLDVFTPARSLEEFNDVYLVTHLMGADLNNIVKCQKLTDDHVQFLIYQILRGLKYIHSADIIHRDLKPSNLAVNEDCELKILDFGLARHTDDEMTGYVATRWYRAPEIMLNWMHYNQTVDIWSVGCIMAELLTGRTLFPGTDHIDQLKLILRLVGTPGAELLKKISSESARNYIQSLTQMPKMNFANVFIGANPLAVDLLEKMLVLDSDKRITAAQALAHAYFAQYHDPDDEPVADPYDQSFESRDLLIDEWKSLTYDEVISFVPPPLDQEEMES
# [2] = target: T1, GST-p38α (human p38α with an N-terminal …); assay: thermal shift assay; GST-p38α 1.5 μM with TAB1(386-414) peptide 15 μM, alone or with NC-37 / NC-38; 20 mM TRIS pH 7.5, 100 mM NaCl, 2 mM MgCl2, 2 mM DTT; SYPRO Orange, 25 to 95 °C; settings: both partners purified
Binder,Kd [1] [nM],binding result [2]
B1,989 ± 160,–
B2,–,binds
